This is an account of results in patent US20210388087A1 (Chugai, published 2021).

The chains are these.
B1: GLS3000 F55M (antibody, name in Kabat numbering, V domains shown)
VH: QVQLVESGGGVVQPGRSLRLSCAASGFTFSNAWMHWVRQAPGKGLEWVAQIKAKSNNYATYYAESVKGRFTISRDDSKNSLYLQMNSLKTEDTAVYYCRYVHYGAYYGVDAWGQGTTVTVSS
VL: DIVMTQSPLSLPVTPGEPASISCRSSQSLVHSNRNTYLHWYQQKPGQAPRLLIYKVSNRMSGVPDRFSGSGSGTDFTLKISRVEAEDVGVYYCGQGTQVPYTFGQGTKLEIK
notes: one-arm IgG as m2
B2: GLS3000 F55Q (antibody, name in Kabat numbering, V domains shown)
VH: QVQLVESGGGVVQPGRSLRLSCAASGFTFSNAWMHWVRQAPGKGLEWVAQIKAKSNNYATYYAESVKGRFTISRDDSKNSLYLQMNSLKTEDTAVYYCRYVHYGAYYGVDAWGQGTTVTVSS
VL: DIVMTQSPLSLPVTPGEPASISCRSSQSLVHSNRNTYLHWYQQKPGQAPRLLIYKVSNRQSGVPDRFSGSGSGTDFTLKISRVEAEDVGVYYCGQGTQVPYTFGQGTKLEIK
notes: one-arm IgG as m2
B3: GLS3000 F55S (antibody, name in Kabat numbering, V domains shown)
VH: QVQLVESGGGVVQPGRSLRLSCAASGFTFSNAWMHWVRQAPGKGLEWVAQIKAKSNNYATYYAESVKGRFTISRDDSKNSLYLQMNSLKTEDTAVYYCRYVHYGAYYGVDAWGQGTTVTVSS
VL: DIVMTQSPLSLPVTPGEPASISCRSSQSLVHSNRNTYLHWYQQKPGQAPRLLIYKVSNRSSGVPDRFSGSGSGTDFTLKISRVEAEDVGVYYCGQGTQVPYTFGQGTKLEIK
notes: one-arm IgG as m2
B4: GLS3000 G89D (antibody, name in Kabat numbering, V domains shown)
VH: QVQLVESGGGVVQPGRSLRLSCAASGFTFSNAWMHWVRQAPGKGLEWVAQIKAKSNNYATYYAESVKGRFTISRDDSKNSLYLQMNSLKTEDTAVYYCRYVHYGAYYGVDAWGQGTTVTVSS
VL: DIVMTQSPLSLPVTPGEPASISCRSSQSLVHSNRNTYLHWYQQKPGQAPRLLIYKVSNRFSGVPDRFSGSGSGTDFTLKISRVEAEDVGVYYCDQGTQVPYTFGQGTKLEIK
notes: one-arm IgG as m2
B5: GLS3000 G89F (antibody, name in Kabat numbering, V domains shown)
VH: QVQLVESGGGVVQPGRSLRLSCAASGFTFSNAWMHWVRQAPGKGLEWVAQIKAKSNNYATYYAESVKGRFTISRDDSKNSLYLQMNSLKTEDTAVYYCRYVHYGAYYGVDAWGQGTTVTVSS
VL: DIVMTQSPLSLPVTPGEPASISCRSSQSLVHSNRNTYLHWYQQKPGQAPRLLIYKVSNRFSGVPDRFSGSGSGTDFTLKISRVEAEDVGVYYCFQGTQVPYTFGQGTKLEIK
notes: one-arm IgG as m2
B6: GLS3000 G89A (antibody, name in Kabat numbering, V domains shown)
VH: QVQLVESGGGVVQPGRSLRLSCAASGFTFSNAWMHWVRQAPGKGLEWVAQIKAKSNNYATYYAESVKGRFTISRDDSKNSLYLQMNSLKTEDTAVYYCRYVHYGAYYGVDAWGQGTTVTVSS
VL: DIVMTQSPLSLPVTPGEPASISCRSSQSLVHSNRNTYLHWYQQKPGQAPRLLIYKVSNRFSGVPDRFSGSGSGTDFTLKISRVEAEDVGVYYCAQGTQVPYTFGQGTKLEIK
notes: one-arm IgG as m2
B7: GLS3000 F55N (antibody, name in Kabat numbering, V domains shown)
VH: QVQLVESGGGVVQPGRSLRLSCAASGFTFSNAWMHWVRQAPGKGLEWVAQIKAKSNNYATYYAESVKGRFTISRDDSKNSLYLQMNSLKTEDTAVYYCRYVHYGAYYGVDAWGQGTTVTVSS
VL: DIVMTQSPLSLPVTPGEPASISCRSSQSLVHSNRNTYLHWYQQKPGQAPRLLIYKVSNRNSGVPDRFSGSGSGTDFTLKISRVEAEDVGVYYCGQGTQVPYTFGQGTKLEIK
notes: one-arm IgG as m2
B8: GLS3000 F55Y (antibody, name in Kabat numbering, V domains shown)
VH: QVQLVESGGGVVQPGRSLRLSCAASGFTFSNAWMHWVRQAPGKGLEWVAQIKAKSNNYATYYAESVKGRFTISRDDSKNSLYLQMNSLKTEDTAVYYCRYVHYGAYYGVDAWGQGTTVTVSS
VL: DIVMTQSPLSLPVTPGEPASISCRSSQSLVHSNRNTYLHWYQQKPGQAPRLLIYKVSNRYSGVPDRFSGSGSGTDFTLKISRVEAEDVGVYYCGQGTQVPYTFGQGTKLEIK
notes: one-arm IgG as m2
B9: GLS3000 F55W (antibody, name in Kabat numbering, V domains shown)
VH: QVQLVESGGGVVQPGRSLRLSCAASGFTFSNAWMHWVRQAPGKGLEWVAQIKAKSNNYATYYAESVKGRFTISRDDSKNSLYLQMNSLKTEDTAVYYCRYVHYGAYYGVDAWGQGTTVTVSS
VL: DIVMTQSPLSLPVTPGEPASISCRSSQSLVHSNRNTYLHWYQQKPGQAPRLLIYKVSNRWSGVPDRFSGSGSGTDFTLKISRVEAEDVGVYYCGQGTQVPYTFGQGTKLEIK
notes: one-arm IgG as m2
B10: GLS3000 G89H (antibody, name in Kabat numbering, V domains shown)
VH: QVQLVESGGGVVQPGRSLRLSCAASGFTFSNAWMHWVRQAPGKGLEWVAQIKAKSNNYATYYAESVKGRFTISRDDSKNSLYLQMNSLKTEDTAVYYCRYVHYGAYYGVDAWGQGTTVTVSS
VL: DIVMTQSPLSLPVTPGEPASISCRSSQSLVHSNRNTYLHWYQQKPGQAPRLLIYKVSNRFSGVPDRFSGSGSGTDFTLKISRVEAEDVGVYYCHQGTQVPYTFGQGTKLEIK
notes: one-arm IgG as m2
B11: GLS3000 F55P (antibody, name in Kabat numbering, V domains shown)
VH: QVQLVESGGGVVQPGRSLRLSCAASGFTFSNAWMHWVRQAPGKGLEWVAQIKAKSNNYATYYAESVKGRFTISRDDSKNSLYLQMNSLKTEDTAVYYCRYVHYGAYYGVDAWGQGTTVTVSS
VL: DIVMTQSPLSLPVTPGEPASISCRSSQSLVHSNRNTYLHWYQQKPGQAPRLLIYKVSNRPSGVPDRFSGSGSGTDFTLKISRVEAEDVGVYYCGQGTQVPYTFGQGTKLEIK
notes: one-arm IgG as m2
B12: GLS3000 G89E (antibody, name in Kabat numbering, V domains shown)
VH: QVQLVESGGGVVQPGRSLRLSCAASGFTFSNAWMHWVRQAPGKGLEWVAQIKAKSNNYATYYAESVKGRFTISRDDSKNSLYLQMNSLKTEDTAVYYCRYVHYGAYYGVDAWGQGTTVTVSS
VL: DIVMTQSPLSLPVTPGEPASISCRSSQSLVHSNRNTYLHWYQQKPGQAPRLLIYKVSNRFSGVPDRFSGSGSGTDFTLKISRVEAEDVGVYYCEQGTQVPYTFGQGTKLEIK
notes: one-arm IgG as m2
B13: GLS3000 F55T (antibody, name in Kabat numbering, V domains shown)
VH: QVQLVESGGGVVQPGRSLRLSCAASGFTFSNAWMHWVRQAPGKGLEWVAQIKAKSNNYATYYAESVKGRFTISRDDSKNSLYLQMNSLKTEDTAVYYCRYVHYGAYYGVDAWGQGTTVTVSS
VL: DIVMTQSPLSLPVTPGEPASISCRSSQSLVHSNRNTYLHWYQQKPGQAPRLLIYKVSNRTSGVPDRFSGSGSGTDFTLKISRVEAEDVGVYYCGQGTQVPYTFGQGTKLEIK
notes: one-arm IgG as m2
B14: GLS3000 F55V (antibody, name in Kabat numbering, V domains shown)
VH: QVQLVESGGGVVQPGRSLRLSCAASGFTFSNAWMHWVRQAPGKGLEWVAQIKAKSNNYATYYAESVKGRFTISRDDSKNSLYLQMNSLKTEDTAVYYCRYVHYGAYYGVDAWGQGTTVTVSS
VL: DIVMTQSPLSLPVTPGEPASISCRSSQSLVHSNRNTYLHWYQQKPGQAPRLLIYKVSNRVSGVPDRFSGSGSGTDFTLKISRVEAEDVGVYYCGQGTQVPYTFGQGTKLEIK
notes: one-arm IgG as m2
B15: GLS3000 F55R (antibody, name in Kabat numbering, V domains shown)
VH: QVQLVESGGGVVQPGRSLRLSCAASGFTFSNAWMHWVRQAPGKGLEWVAQIKAKSNNYATYYAESVKGRFTISRDDSKNSLYLQMNSLKTEDTAVYYCRYVHYGAYYGVDAWGQGTTVTVSS
VL: DIVMTQSPLSLPVTPGEPASISCRSSQSLVHSNRNTYLHWYQQKPGQAPRLLIYKVSNRRSGVPDRFSGSGSGTDFTLKISRVEAEDVGVYYCGQGTQVPYTFGQGTKLEIK
notes: one-arm IgG as m2

The target in the test is T1, CD3 epsilon homodimer protein (UniProt P07766 23-126).
T1 construct: also called CD3 (CD3 epsilon)
T1 sequence (P07766 23-126): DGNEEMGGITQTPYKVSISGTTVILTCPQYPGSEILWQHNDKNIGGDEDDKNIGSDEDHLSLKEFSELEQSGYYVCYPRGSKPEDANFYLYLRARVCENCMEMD
Kind of test: SPR Biacore T200, CD3e homodimer on chip, vs unaltered GLS3000 antibody. In general terms: Surface plasmon resonance follows binding to a sensor surface in real time, without labels.
B1: the “ratio of amounts bound (Z=Y/X)” value amounted to 0.8.

B2: the “ratio of amounts bound (Z=Y/X)” value was 0.91.

On to B3, for which the “ratio of amounts bound (Z=Y/X)” value came out at 0.69.

On to B4, for which the “ratio of amounts bound (Z=Y/X)” value stood at 0.33.

Turning to B5, the “ratio of amounts bound (Z=Y/X)” value was 1.09.

As to B6, the “ratio of amounts bound (Z=Y/X)” value was 1.13.

Consider B7, for which the “ratio of amounts bound (Z=Y/X)” value turned out to be 0.98.

On to B8, for which the “ratio of amounts bound (Z=Y/X)” value was 0.92.

On to B9, for which the “ratio of amounts bound (Z=Y/X)” value came out at 0.69.

On to B10, for which the “ratio of amounts bound (Z=Y/X)” value was determined as 0.7.

For B11, the “ratio of amounts bound (Z=Y/X)” value was determined as 1.16.

Take B12: the “ratio of amounts bound (Z=Y/X)” value turned out to be 0.26.

Consider B13, for which the “ratio of amounts bound (Z=Y/X)” value was 0.41.

Consider B14, for which the “ratio of amounts bound (Z=Y/X)” value was 0.71.

With B15, the “ratio of amounts bound (Z=Y/X)” value was 1.31.
